Test results from US20240279333A1 (SYSTIMMUNE, published 2024).

B1: SI-35E18 (460C3-L1H1-scFv x PL230C6-Fab x 323H7-H4L1-scFv x 284A10-H1L1-scFv) (antibody, human IgG1, kappa)
heavy: not shown
light: AYDMTQSPSSVSASVGDRVTIKCQASEDIYSFLAWYQQKPGKAPKLLIHSASSLASGVPSRFSGSGSGTDFTLTISSLQPEDFATYYCQQGYGKNNVDNAFGGGTKVEIKRTVAAPSVFIFPPSDEQLKSGTASVVCLLNNFYPREAKVQWKVDNALQSGNSQESVTEQDSKDSTYSLSSTLTLSKADYEKHKVYACEVTHQGLSSPVTKSFNRGEC
notes: Tetra-specific antibody, symmetric dimer
B2: SI-39E10 (420H5 x PL230 x 806 x 284A10) (antibody, human IgG1, kappa)
heavy: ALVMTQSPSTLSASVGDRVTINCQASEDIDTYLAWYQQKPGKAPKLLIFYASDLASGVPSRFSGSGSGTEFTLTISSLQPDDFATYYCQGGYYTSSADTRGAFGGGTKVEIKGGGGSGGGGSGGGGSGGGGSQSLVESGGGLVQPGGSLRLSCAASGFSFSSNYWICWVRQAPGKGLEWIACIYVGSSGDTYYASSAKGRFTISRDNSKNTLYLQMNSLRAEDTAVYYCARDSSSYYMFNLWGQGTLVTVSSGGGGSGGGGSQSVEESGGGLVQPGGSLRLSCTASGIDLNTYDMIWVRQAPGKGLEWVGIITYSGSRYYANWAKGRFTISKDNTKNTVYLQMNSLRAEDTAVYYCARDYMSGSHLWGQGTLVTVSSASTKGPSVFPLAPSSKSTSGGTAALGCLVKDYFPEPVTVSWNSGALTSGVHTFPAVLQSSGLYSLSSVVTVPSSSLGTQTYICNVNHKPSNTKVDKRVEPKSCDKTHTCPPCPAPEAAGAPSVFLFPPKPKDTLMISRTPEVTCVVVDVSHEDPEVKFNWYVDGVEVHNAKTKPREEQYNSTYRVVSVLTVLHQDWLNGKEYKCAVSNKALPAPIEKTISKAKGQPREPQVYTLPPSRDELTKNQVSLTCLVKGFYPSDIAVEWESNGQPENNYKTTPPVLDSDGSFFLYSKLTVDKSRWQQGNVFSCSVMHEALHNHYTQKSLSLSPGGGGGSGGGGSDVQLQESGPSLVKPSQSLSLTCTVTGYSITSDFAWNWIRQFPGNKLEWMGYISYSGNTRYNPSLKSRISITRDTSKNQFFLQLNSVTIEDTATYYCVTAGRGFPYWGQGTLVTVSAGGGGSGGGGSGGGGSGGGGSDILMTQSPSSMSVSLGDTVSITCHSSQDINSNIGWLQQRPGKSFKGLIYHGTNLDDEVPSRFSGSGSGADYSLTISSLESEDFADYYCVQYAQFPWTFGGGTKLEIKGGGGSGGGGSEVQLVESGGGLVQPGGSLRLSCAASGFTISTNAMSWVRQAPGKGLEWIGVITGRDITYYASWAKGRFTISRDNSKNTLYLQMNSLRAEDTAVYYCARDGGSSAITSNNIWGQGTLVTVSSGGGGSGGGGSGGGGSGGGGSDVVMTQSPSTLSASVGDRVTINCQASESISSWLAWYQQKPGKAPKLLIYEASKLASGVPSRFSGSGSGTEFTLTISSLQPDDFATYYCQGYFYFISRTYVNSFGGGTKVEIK
light: B1 light
notes: as for B1
B3: SI-39E23 (PL230 x 806 x 420H5 x 284A10) (antibody)
heavy: not shown
light: DILMTQSPSSMSVSLGDTVSITCHSSQDINSNIGWLQQRPGKSFKGLIYHGTNLDDEVPSRFSGSGSGADYSLTISSLESEDFADYYCVQYAQFPWTFGGGTKLEIKRTVAAPSVFIFPPSDEQLKSGTASVVCLLNNFYPREAKVQWKVDNALQSGNSQESVTEQDSKDSTYSLSSTLTLSKADYEKHKVYACEVTHQGLSSPVTKSFNRGEC
notes: as for B1
B4: SI-39E18 (284A10 x 806 x PL221 x 420H5) (antibody)
heavy: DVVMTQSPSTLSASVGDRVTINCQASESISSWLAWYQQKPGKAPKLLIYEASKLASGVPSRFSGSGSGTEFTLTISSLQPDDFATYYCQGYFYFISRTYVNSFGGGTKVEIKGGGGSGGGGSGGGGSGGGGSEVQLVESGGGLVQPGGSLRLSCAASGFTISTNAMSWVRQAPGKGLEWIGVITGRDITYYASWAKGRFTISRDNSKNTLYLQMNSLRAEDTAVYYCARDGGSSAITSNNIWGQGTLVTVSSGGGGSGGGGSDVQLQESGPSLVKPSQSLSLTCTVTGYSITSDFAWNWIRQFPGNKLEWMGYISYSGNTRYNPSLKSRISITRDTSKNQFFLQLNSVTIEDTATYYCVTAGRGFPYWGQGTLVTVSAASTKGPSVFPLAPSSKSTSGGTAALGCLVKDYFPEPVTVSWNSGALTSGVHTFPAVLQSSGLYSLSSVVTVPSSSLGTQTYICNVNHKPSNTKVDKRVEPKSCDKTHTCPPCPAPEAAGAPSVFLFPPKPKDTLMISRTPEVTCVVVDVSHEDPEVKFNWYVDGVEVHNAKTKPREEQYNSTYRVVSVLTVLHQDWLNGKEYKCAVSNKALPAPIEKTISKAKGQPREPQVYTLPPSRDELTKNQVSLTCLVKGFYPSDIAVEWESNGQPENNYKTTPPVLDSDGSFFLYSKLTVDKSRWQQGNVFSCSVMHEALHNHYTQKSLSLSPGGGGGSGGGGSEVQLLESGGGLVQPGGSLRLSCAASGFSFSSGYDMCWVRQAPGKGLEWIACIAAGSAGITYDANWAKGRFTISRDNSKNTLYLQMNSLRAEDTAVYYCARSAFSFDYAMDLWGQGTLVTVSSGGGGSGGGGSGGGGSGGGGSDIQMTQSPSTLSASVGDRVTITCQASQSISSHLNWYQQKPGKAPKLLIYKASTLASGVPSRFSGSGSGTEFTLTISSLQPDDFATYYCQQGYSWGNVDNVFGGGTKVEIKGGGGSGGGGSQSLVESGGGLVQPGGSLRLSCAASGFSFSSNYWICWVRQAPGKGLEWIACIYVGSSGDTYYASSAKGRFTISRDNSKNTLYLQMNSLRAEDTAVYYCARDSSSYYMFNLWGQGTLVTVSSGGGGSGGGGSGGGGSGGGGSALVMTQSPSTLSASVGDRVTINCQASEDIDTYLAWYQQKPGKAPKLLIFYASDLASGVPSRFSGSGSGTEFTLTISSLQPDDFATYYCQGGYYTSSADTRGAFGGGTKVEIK
light: B3 light
notes: as for B1
B5: SI-39E13 (420H5 x PL230 x 284A10 x 806) (antibody, human IgG1, kappa)
heavy: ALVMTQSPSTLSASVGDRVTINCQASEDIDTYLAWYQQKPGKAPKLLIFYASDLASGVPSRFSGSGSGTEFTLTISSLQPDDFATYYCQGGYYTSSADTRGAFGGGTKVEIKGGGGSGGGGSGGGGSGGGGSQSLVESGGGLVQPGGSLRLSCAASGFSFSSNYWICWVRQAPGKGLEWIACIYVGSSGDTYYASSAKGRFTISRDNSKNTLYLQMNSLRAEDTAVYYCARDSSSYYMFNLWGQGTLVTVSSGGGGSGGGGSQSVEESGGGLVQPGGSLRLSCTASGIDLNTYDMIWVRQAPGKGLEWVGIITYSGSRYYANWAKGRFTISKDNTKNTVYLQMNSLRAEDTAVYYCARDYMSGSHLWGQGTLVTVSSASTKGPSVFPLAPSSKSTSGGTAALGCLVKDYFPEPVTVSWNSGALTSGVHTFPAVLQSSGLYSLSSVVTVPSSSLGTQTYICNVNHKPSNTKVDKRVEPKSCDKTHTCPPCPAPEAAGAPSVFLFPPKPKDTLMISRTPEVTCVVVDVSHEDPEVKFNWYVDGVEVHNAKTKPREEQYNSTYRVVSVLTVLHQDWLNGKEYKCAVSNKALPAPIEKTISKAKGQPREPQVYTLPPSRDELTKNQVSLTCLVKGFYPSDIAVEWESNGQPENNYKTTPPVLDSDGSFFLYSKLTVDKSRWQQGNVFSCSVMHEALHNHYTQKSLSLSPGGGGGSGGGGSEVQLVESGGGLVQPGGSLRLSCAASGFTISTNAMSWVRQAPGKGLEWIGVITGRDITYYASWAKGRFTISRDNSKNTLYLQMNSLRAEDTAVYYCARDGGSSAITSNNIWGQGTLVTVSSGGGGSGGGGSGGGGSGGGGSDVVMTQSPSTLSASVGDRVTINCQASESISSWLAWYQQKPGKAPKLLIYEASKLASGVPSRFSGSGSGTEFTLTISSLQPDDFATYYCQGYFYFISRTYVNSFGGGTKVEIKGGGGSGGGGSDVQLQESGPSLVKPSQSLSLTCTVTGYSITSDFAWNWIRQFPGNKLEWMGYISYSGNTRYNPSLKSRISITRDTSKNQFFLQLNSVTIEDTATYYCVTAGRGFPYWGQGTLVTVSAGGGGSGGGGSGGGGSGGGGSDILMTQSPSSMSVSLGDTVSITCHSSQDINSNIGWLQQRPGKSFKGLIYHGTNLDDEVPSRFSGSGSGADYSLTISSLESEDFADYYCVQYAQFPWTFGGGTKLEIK
light: B1 light
notes: as for B1
B6: SI-39E4 (PL230 x 806 x 284A10 x 420H5) (antibody)
heavy: not shown
light: B3 light
notes: Tetra-specific antibody, symmetric dimer; also called SI-39E04; 39 E04
B7: SI-39E29 (806 x 284A10 x PL221 x 420H5) (antibody)
heavy: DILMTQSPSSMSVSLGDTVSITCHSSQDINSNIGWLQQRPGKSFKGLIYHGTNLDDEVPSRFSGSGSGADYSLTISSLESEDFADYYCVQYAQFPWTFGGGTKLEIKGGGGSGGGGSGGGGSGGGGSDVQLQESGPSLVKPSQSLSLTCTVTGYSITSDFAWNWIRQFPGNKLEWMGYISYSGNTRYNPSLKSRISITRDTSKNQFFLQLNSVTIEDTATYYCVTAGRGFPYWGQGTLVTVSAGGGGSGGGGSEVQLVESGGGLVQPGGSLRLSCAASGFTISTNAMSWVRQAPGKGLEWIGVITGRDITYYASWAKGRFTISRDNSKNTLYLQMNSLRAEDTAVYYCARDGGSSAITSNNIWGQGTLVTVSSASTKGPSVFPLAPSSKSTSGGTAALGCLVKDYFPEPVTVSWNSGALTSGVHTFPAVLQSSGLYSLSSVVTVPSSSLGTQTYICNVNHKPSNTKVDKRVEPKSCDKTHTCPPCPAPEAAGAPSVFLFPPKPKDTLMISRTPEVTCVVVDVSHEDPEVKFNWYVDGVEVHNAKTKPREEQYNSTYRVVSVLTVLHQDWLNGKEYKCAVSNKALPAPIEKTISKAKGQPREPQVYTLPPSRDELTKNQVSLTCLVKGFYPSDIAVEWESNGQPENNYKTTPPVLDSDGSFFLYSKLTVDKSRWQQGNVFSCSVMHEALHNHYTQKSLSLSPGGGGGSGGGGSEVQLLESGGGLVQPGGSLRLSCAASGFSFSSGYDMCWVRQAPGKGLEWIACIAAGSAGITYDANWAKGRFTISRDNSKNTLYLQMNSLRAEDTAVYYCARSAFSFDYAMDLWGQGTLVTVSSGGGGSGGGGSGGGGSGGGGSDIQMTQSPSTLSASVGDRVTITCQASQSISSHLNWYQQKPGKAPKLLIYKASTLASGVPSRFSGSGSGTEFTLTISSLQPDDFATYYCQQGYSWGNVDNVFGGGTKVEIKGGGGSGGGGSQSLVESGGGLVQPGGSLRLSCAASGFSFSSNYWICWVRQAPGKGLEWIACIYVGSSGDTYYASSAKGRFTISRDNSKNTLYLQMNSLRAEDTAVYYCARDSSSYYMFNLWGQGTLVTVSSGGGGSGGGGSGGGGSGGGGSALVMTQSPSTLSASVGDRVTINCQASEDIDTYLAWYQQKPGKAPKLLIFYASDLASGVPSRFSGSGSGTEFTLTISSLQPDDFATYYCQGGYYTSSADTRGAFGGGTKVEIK
light: DVVMTQSPSTLSASVGDRVTINCQASESISSWLAWYQQKPGKAPKLLIYEASKLASGVPSRFSGSGSGTEFTLTISSLQPDDFATYYCQGYFYFISRTYVNSFGGGTKVEIKRTVAAPSVFIFPPSDEQLKSGTASVVCLLNNFYPREAKVQWKVDNALQSGNSQESVTEQDSKDSTYSLSSTLTLSKADYEKHKVYACEVTHQGLSSPVTKSFNRGEC
notes: as for B1
B8: SI-35E24 (460C3 x PL230C6 x 330F11 x 284A10) (antibody, human IgG1, kappa)
heavy: not shown
light: B1 light
notes: Tetra-specific antibody, symmetric dimer; also called SI-3524
B9: SI-35E25 (420H5 x PL230C6 x 330F11 x 284A10) (antibody, human IgG1, kappa)
heavy: not shown
light: B1 light
notes: Tetra-specific antibody, symmetric dimer; also called '25' in 'SI-3524, 25, and 26'
B10: SI-35E26 (466F6 x PL230C6 x 330F11 x 284A10) (antibody, human IgG1, kappa)
heavy: not shown
light: B1 light
notes: Tetra-specific antibody, symmetric dimer; also called '26' in 'SI-3524, 25, and 26'

What follows are binders tested against T1, human PD-L1 on transfected CHO cells (human, UniProt Q9NZQ7 19-290) (assay: FACS on human PD-L1 transfected CHO cells, PE goat anti-human IgG Fc secondary; y axis without label).
T1 construct: whole, on cells; also called PD-L1 expressing CHO cells; human PD-L1 transfected CHO cells

| Binder | binding result |
| --- | --- |
| B1 | binds |

What follows are binders tested against T2, human 4-1BB on transfected CHO cells (human, UniProt Q07011 24-255) (assay: FACS on human 4-1BB transfected CHO cells, PE goat anti-human IgG Fc secondary; y axis without label).
T2 construct: whole, on cells; also called 41BB expressing CHO cells; human 41BB transfected CHO cells

| Binder | binding result |
| --- | --- |
| B1 | binds |

Each binder was assayed against 4-1BB protein antigen (immobilized on the sensor) (UniProt Q07011 24-186, limits assumed) (assay: Octet RED96, antigen immobilized).

| Binder | Kd | Response | koff | kon |
| --- | --- | --- | --- | --- |
| B2 | 0.0356 nM | 2.63 | 7.43e-06 s⁻¹ | 209000 M⁻¹ s⁻¹ |
| B3 | 0.696 nM | 2.02 | 0.000141 s⁻¹ | 203000 M⁻¹ s⁻¹ |
| B4 | 0.393 nM | 2.02 | 9.24e-05 s⁻¹ | 235000 M⁻¹ s⁻¹ |
| B5 | 0.117 nM | 2.47 | 2.65e-05 s⁻¹ | 227000 M⁻¹ s⁻¹ |
| B6 | 0.354 nM | 2.42 | 5.91e-05 s⁻¹ | 167000 M⁻¹ s⁻¹ |

These binders were tested against T3, CD3 e/d antigen (immobilized on the sensor) (UniProt P07766 23-126; P04234 22-105) (assay: Octet RED96, antigen immobilized).
T3 construct: 'e/d' read as epsilon/delta; construct not described

| Binder | Kd | Response | koff | kon |
| --- | --- | --- | --- | --- |
| B2 | < 0.001 nM | 2.24 | < 1e-07 s⁻¹ | 110000 M⁻¹ s⁻¹ |
| B3 | 0.207 nM | 2.65 | 2.54e-05 s⁻¹ | 123000 M⁻¹ s⁻¹ |
| B4 | 0.632 nM | 1.76 | 0.00011 s⁻¹ | 174000 M⁻¹ s⁻¹ |
| B5 | < 0.001 nM | 1.8 | < 1e-07 s⁻¹ | 104000 M⁻¹ s⁻¹ |
| B6 | < 0.001 nM | 1.97 | < 1e-07 s⁻¹ | 86100 M⁻¹ s⁻¹ |
| B7 | 0.475 nM | 1.85 | 7.86e-05 s⁻¹ | 166000 M⁻¹ s⁻¹ |

The binders below were run against PD-L1 protein antigen (immobilized on the sensor) (UniProt Q9NZQ7 19-238, limits assumed) (assay: Octet RED96, antigen immobilized).

| Binder | Kd | Response | koff | kon |
| --- | --- | --- | --- | --- |
| B2 | 0.0685 nM | 1.94 | 2.61e-05 s⁻¹ | 381000 M⁻¹ s⁻¹ |
| B3 | 0.0402 nM | 1.9 | 1.94e-05 s⁻¹ | 483000 M⁻¹ s⁻¹ |
| B4 | 0.168 nM | 1.83 | 6.37e-05 s⁻¹ | 379000 M⁻¹ s⁻¹ |
| B5 | 0.0801 nM | 1.92 | 3.32e-05 s⁻¹ | 415000 M⁻¹ s⁻¹ |
| B6 | 0.0723 nM | 2.15 | 2.41e-05 s⁻¹ | 333000 M⁻¹ s⁻¹ |
| B7 | 0.283 nM | 1.72 | 0.000106 s⁻¹ | 376000 M⁻¹ s⁻¹ |

These binders were tested against T4, full length human ROR1 stably expressed on CHO cells (human, UniProt Q01973 30-937) (assay: FACS on CHO cells stably expressing full length human ROR1, PE goat anti-human IgG Fc secondary; y axis without label).
T4 construct: whole, on cells; also called ROR1-CHO cells; human ROR1 transfected CHO cells

| Binder | binding result |
| --- | --- |
| B1 | binds |
| B8 | no binding (tested: 10 nM) |
| B9 | no binding (tested: 10 nM) |
| B10 | no binding (tested: 10 nM) |
